Measurements as given in PMC10798138 (Journal of inorganic biochemistry, 2023).
Changes are numbered by the printed parent chain. Names and notes keep the numbering of the source.

T1: bovine Adrenodoxin reductase (bovine, UniProt P08165 33-492)
T1 sequence: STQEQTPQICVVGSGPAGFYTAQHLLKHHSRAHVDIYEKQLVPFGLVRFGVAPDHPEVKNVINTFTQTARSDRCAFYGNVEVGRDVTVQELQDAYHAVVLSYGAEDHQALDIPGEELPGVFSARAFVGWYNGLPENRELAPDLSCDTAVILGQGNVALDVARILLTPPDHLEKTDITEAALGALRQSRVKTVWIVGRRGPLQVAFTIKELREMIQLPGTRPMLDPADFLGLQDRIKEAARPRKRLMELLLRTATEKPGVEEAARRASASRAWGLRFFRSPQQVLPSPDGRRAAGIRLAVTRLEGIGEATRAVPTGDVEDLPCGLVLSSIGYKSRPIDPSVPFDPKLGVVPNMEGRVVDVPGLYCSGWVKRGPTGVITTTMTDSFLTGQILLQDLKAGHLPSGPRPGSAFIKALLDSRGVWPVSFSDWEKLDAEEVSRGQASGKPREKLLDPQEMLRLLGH

B1: full-length human Adrenodoxin with the L80V mutation (natural protein, UniProt P10109 62-184, looked up)
chain: SSEDKITVHFINRDGETLTTKGKVGDSLLDVVVENNLDIDGFGACEGTLACSTCHLIFEDHIYEKLDAITDEENDMLDVAYGLTDRSRLGCQICLTKSMDNMTVRVPETVADARQSIDVGKTS
B2: full-length human Adrenodoxin (Ferredoxin 1), hAdx (2–124) (natural protein, UniProt P10109 62-184, looked up)
chain: B1 chain with V79L

Legend:
SEC = target: the molecule itself; assay: SEC
[1] = target: T1, bovine Adrenodoxin reductase; assay: NMR titration

Binder	binding result (SEC)	binding result [1]
B1	binds	
B2		binds
